Drawing on patent US20220153803, this text covers Dephosphorylation T50 (mins.) pH 7.4 for one substance.

Chain of phospho-Ser^8-glucagon (chain, as listed by the source): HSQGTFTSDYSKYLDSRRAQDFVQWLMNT

Turning to bovine alkaline phosphatase, the results for the Dephosphorylation T50 (mins.) pH 7.4 in the series on phospho-Ser^8-glucagon and in the series on phospho-Thr^5-glucagon were 94.9 min and 85.9 min, respectively.
